From JP2010011840A (dated 2010) come the findings set out here.

The test has as its target T1, CDR1抗原ペプチド(RSSKSLLYSNGNTYLY).
T1 peptide: RSSKSLLYSNGNTYLY
The test is described as follows: cell-based or functional assay.

B1: i41SL1-2抗体の重鎖(i41SL1-2-H) (other, not shown: a dimerising Fc or GST)
heavy: QVQLQHSGAELVRPGSSVKVSCKALGYTSTDYEIHWVKQTPVRGLEWIGAIHPGSDVIVYNQKFKGTATLTADKSSSTAYMELRSLTSEDSAVYYCTREGGSVDYVWGQGTLVTVSA
modifications: reduced with 0.2 M β-mercaptoethanol and alkylated with 0.3 M iodoacetamide (positions not stated)
Turning to B1, the “回転数(kcat)” value was ~0.005 ratio to trypsin and the “触媒効率(kcat/Km)” value is ~0.1 ratio to trypsin.

B2: i41SL1-2抗体の軽鎖(i41SL1-2-L) (other, not shown: a dimerising Fc or GST)
light: DIVMTQTQLTLTINIGQPASISCKSSQSLLDSDGKTYLNWLFQRPGQSPKRLIYLVSKLDSGVPDRFTGSGSGTDFTLKISRVEAEDLGVYYCWQGTHFPLTFGAGTKLELRRA
modifications: reduced with 0.2 M β-mercaptoethanol and alkylated with 0.3 M iodoacetamide (positions not stated)
Consider B2, for which the “回転数(kcat)” value is ~0.005 ratio to trypsin.
